# Molecular target: T1, human serum albumin (HSA) (human, UniProt P02768 25-609)
# T1 construct: also called human albumin; Albiomin 20%
# Assay: FVIII antigen ELISA on plasma samples; albumin binding inferred from reduced detection
row,binding result,Binder
1,binds,"AD2CD2-19M_SC (other, also called de-immunized FVIII-ABD fusion molecule) ATRRYYLGAVELSWDYMQSDLGELPVDARFPPRVPKSFPFNTSVVYKKTLFVEFTDHLFSIAKPRPPWMGLLGPTIQAEVYDTVVITLKNMATHPVSLHAVGVSYWKASEGAEYDDQTSQREKEDDKVFPGGSHTYVWQVSKENGPMASDPQCLTYSYLSHVDLAKDLNSGLIGALLVCREGSLAKEKTQTLHKFILLFAVFDEGKSWHSETKDSLMQDRDAASARAWPKMHTVNGYVNRSLPGLTGCHRKSVYWHVIGMGTTPEVHSIFLEGHTFLVRDHRQASLEISPITFLTAQTLLMDLGQFLLFCHISSHQHDGMEAYVKVDSCPEEPQLRMKNNEEAEDYDDDLTDSEMDVVRFDDDNSPSFIQIRSVAKKHPKTWVHYIAAEEEDWDYAPLVLAPDDRSHKSQYLNNGPQRIGRKYKKVRFMAYTDETFKTREAIQHESGILGPLLYGEVGDTLLIIFKNQASRPYNIYPHGITDVRPLYERRLPKGVKHLKDFPILPGEIFKYKWTVTVEDGPTKSDPRCLTRYYSSHVNMERDLASGLIGPLLICYKESVDQRGNQIMSDKRNVILFSVFDENRSWYLTENIQRFLPEPAGVQLEDPEFQASNIMHSINGYVFDSLQLSVCLHEVAYWYILSIGAQTDFLSVFFSGYTFKHKMVYEDTLTLFPFSGETVFMSMENPGNWILGCHNSDFRNRGMTALLKVSSCDKNTGDYYEDSYEDISASLLSKNNAIEPRSFSQNPPVLSKNNAIEPRSFSQNSRHPSLAEAKEAANAELDSYGVSDFYKRLIDKAKTVEGVEALKDAILAALPGSGGSGGSGGSGSGSKNNAIEPRSFSQNSRHPSGSGGSGGSGGSGSLAEAKEAANAELDSYGVSDFYKRLIDKAKTVEGVEALKDAILAALPSKNNAIEPRSFSQNSRHPSQSDQEEIDYDDTISVEMKKEDFDIYDEDENQSPRSFQKKTRHYFIAAVERLWDYGMSSSPHVLRNRAQSGSVPQFKKVVFQEFTDGSFTQPLYRGELNEHLGLLGPYIRAEVEDNIMVTFRNQASRPYSFYSSLISYEEDQRQGAEPRKNFVKPNETKTYFWEVQHHMAPTKDEFDCKAWAYFSDVDLEKDVHSGLIGPLLVCHTNTLNPAHGRQVTVQEFALFFTIFDETKSWYFTENMERNCRAPCNIQMEDPTFKENYRFHAINGYIMDTLPGLVMAQDQRIRWYLLSMGSNENIHSIHFSGHVFTVRKKEEYKMALYNLYPGVFETVEMLPSKAGIWRVECLIGEHLHAGMSTLFLVYSDKCQTPLGMASGHIRDFQITASGQYGQWAPKLARLHYSGGINAWSTKEPFSWIKVDLLAPMIIHGIKTQGARQKFSSLYISQFIIMYSLDGKKWQTYRGNSTGTLMVFFGNVDSSGIKHNIFNPPIIARYIRLHPTHYSIRSTLRMELMGCDLNSCSMPLGMESKAISDAQITASSYFTNMFATWSPSKARLHLQGRSNAWRPQVNNPKEWLQVDFQKTMKVTGVTTQGVKSLLTSMYVKEFLISSSQDGHQWTLFFQNGKVKVFQGNQDSFTPVVNTLDPPLLTRYLRIHPQSWAHQIALRMEVLGCEAQDLYSKNNAIEPRSFSQNSRHPSLAEAKEAANAELDSYGVSDFYKRLIDKAKTVEGVEALKDAILAALPGSGGSGGSGGSGSGSKNNAIEPRSFSQNSRHPSGSGGSGGSGGSGSLAEAKEAANAELDSYGVSDFYKRLIDKAKTVEGVEALKDAILAALP"
2,binds,AD2CD2_SC (other) ATRRYYLGAVELSWDYMQSDLGELPVDARFPPRVPKSFPFNTSVVYKKTLFVEFTDHLFNIAKPRPPWMGLLGPTIQAEVYDTVVITLKNMASHPVSLHAVGVSYWKASEGAEYDDQTSQREKEDDKVFPGGSHTYVWQVLKENGPMASDPLCLTYSYLSHVDLVKDLNSGLIGALLVCREGSLAKEKTQTLHKFILLFAVFDEGKSWHSETKNSLMQDRDAASARAWPKMHTVNGYVNRSLPGLIGCHRKSVYWHVIGMGTTPEVHSIFLEGHTFLVRNHRQASLEISPITFLTAQTLLMDLGQFLLFCHISSHQHDGMEAYVKVDSCPEEPQLRMKNNEEAEDYDDDLTDSEMDVVRFDDDNSPSFIQIRSVAKKHPKTWVHYIAAEEEDWDYAPLVLAPDDRSYKSQYLNNGPQRIGRKYKKVRFMAYTDETFKTREAIQHESGILGPLLYGEVGDTLLIIFKNQASRPYNIYPHGITDVRPLYSRRLPKGVKHLKDFPILPGEIFKYKWTVTVEDGPTKSDPRCLTRYYSSFVNMERDLASGLIGPLLICYKESVDQRGNQIMSDKRNVILFSVFDENRSWYLTENIQRFLPNPAGVQLEDPEFQASNIMHSINGYVFDSLQLSVCLHEVAYWYILSIGAQTDFLSVFFSGYTFKHKMVYEDTLTLFPFSGETVFMSMENPGLWILGCHNSDFRNRGMTALLKVSSCDKNTGDYYEDSYEDISAYLLSKNNAIEPRSFSQNPPVLSKNNAIEPRSFSQNSRHPSLAEAKEAANAELDSYGVSDFYKRLIDKAKTVEGVEALKDAILAALPGSGGSGGSGGSGSGSKNNAIEPRSFSQNSRHPSGSGGSGGSGGSGSLAEAKEAANAELDSYGVSDFYKRLIDKAKTVEGVEALKDAILAALPSKNNAIEPRSFSQNSRHPSQSDQEEIDYDDTISVEMKKEDFDIYDEDENQSPRSFQKKTRHYFIAAVERLWDYGMSSSPHVLRNRAQSGSVPQFKKVVFQEFTDGSFTQPLYRGELNEHLGLLGPYIRAEVEDNIMVTFRNQASRPYSFYSSLISYEEDQRQGAEPRKNFVKPNETKTYFWKVQHHMAPTKDEFDCKAWAYFSDVDLEKDVHSGLIGPLLVCHTNTLNPAHGRQVTVQEFALFFTIFDETKSWYFTENMERNCRAPCNIQMEDPTFKENYRFHAINGYIMDTLPGLVMAQDQRIRWYLLSMGSNENIHSIHFSGHVFTVRKKEEYKMALYNLYPGVFETVEMLPSKAGIWRVECLIGEHLHAGMSTLFLVYSNKCQTPLGMASGHIRDFQITASGQYGQWAPKLARLHYSGSINAWSTKEPFSWIKVDLLAPMIIHGIKTQGARQKFSSLYISQFIIMYSLDGKKWQTYRGNSTGTLMVFFGNVDSSGIKHNIFNPPIIARYIRLHPTHYSIRSTLRMELMGCDLNSCSMPLGMESKAISDAQITASSYFTNMFATWSPSKARLHLQGRSNAWRPQVNNPKEWLQVDFQKTMKVTGVTTQGVKSLLTSMYVKEFLISSSQDGHQWTLFFQNGKVKVFQGNQDSFTPVVNSLDPPLLTRYLRIHPQSWVHQIALRMEVLGCEAQDLYSKNNAIEPRSFSQNSRHPSLAEAKEAANAELDSYGVSDFYKRLIDKAKTVEGVEALKDAILAALPGSGGSGGSGGSGSGSKNNAIEPRSFSQNSRHPSGSGGSGGSGGSGSLAEAKEAANAELDSYGVSDFYKRLIDKAKTVEGVEALKDAILAALP

# Reference: patent publication US20230190881A1 (BIOTEST, published 2023)
